# Measurements reported in article PMC10025160, “Uncovering Zn^2+ as a cofactor of FAD-dependent Pseudomonas aeruginosa PAO1 D-2-hydroxyglutarate dehydrogenase” (The Journal of Biological Chemistry, 2023).
# B1: PaD2HGDH (Pseudomonas aeruginosa PAO1) (protein)
# chain: MTREALIESLKPLVEPGKLLDDAASLDAYGKDWTKHFAPAPLAIVFPKSVEQVQAIVRWANQHKVGLVPSGGRTGLSAAAVAANGEVVVAFDYMNRILDFNAFDRTVVCQPGVVTKQLQTFAEENGLYYPVDFASSGSSQIGGNIGTNAGGIKVIRYGMTRNWVAGMKVVTGKGDLLELNKDLIKNATGYDMRQLFIGAEGTLGFVVEATMRLERTPKNLTAMVLGTPDFDSIMPVLHAFQSKLDLTAFEFFSDKALAKVLARGDVPRAFETDCPFYALLEFEATTEEVANEALATFEHCVEQGWVLDGVMSQSEQQLQNLWKLREYISETISHWTPYKNDISVTVSRVPAFLKDIDAIVEANYPDFEVVWFGHIGDGNLHLNILKPENLGKDEFFAKCATVNKWVFETVEKYNGSISAEHGVGMTKRDYLTYTRSETEIAYMKALKAVFDPNGIMNPGKIFAE
# notes: wild type, His-tagged, pET20b(+), expressed in E. coli Rosetta(DE3)pLysS, Ni-NTA purified
# Substrate: O=C(O)C[C@@H](O)C(=O)O
# Assay: initial rates, oxygen consumption (Oxy-32 electrode)
# Assay type: biochemical, Pseudomonas aeruginosa
# Details: E-Zn^2+ form (purified with 1 mM ZnCl2, Zn:protein about 2:1), 1 mM PMS (fixed), 25 mM NaPO4, pH 7.4, 25 °C, apparent
# Excerpt: initial rates, oxygen consumption (Oxy-32 electrode) on PaD2HGDH
protein,measurement,value
B1,Km,5.1 ± 0.4 mM
same,kcat,38 ± 1 s⁻¹
same,kcat/Km,7000 ± 500 M⁻¹ s⁻¹
